The source of these data is PMC4679584.

The assay deals with tumor suppressor gene 101 (TSG101) tagged with eYFP (UniProt Q99816). Kind of assay: FRET or BRET.
Chain of UniProt Q99816 (Q99816 whole entry): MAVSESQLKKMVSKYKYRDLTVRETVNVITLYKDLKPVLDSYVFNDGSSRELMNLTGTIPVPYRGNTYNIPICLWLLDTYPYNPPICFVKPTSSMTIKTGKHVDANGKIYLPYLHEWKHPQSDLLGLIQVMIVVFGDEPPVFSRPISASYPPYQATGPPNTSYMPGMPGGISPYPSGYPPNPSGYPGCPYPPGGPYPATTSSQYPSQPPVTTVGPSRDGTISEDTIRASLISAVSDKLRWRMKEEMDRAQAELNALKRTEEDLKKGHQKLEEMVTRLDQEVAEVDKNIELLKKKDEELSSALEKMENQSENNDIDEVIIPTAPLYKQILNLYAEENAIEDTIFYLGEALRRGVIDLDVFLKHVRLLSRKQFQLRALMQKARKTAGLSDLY

Regarding “wild-type HEV ORF3 protein (Kernow-C1 P6, genotype 3) tagged with eCFP (natural protein)”, the FRET efficiency came to 21.5%.
